In publication PMC6007975:
“And” between values parts separate entries of the source, which are not always exact repeats. Equal entries are not always repeated.

Molecular target: N-terminal fragment of mouse GSDMA3 (GSDMA3-NT) (mouse) (UniProt Q5Y4Y6)
Experiment: cryo-EM structure

- stoichiometry N: 26 and 28
Substance: N-terminal fragment of mouse GSDMA3 (GSDMA3-NT) (from UniProt Q5Y4Y6 1-262) (domain or fragment)
